In patent publication US20250326860A1 (ADAGENE PTE, published 2025):
Numbering of substitutions follows the chain as printed. Names and notes keep the numbering of the source.

T1: human CD20 on cells (human B cells; Raji, SU-DHL-8, SU-DHL-4, A3KAW, NAMALWA) (human, UniProt P11836 1-297)
T1 construct: whole, on cells
T1 sequence (looked up): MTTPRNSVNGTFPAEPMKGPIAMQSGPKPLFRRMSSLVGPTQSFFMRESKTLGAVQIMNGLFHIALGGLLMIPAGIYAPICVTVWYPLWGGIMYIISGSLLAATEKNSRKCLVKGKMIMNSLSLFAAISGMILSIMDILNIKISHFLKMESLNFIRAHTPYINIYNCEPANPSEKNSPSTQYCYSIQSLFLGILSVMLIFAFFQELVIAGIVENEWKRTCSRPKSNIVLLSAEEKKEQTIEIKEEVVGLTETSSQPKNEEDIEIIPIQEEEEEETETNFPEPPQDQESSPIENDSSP

T2: cynomolgus monkey CD20 on B cells (cynomolgus monkey, UniProt M4ZHZ6 1-297)
T2 construct: whole, on cells
T2 sequence: T1 sequence (looked up) with S25P, F31L, T51A, A157V, K217R, N226S, I227V, T239V

B1: TY25716 (bispecific antibody, human IgG1, kappa, N297A)
light: QIVLSQSPAILSASPGEKVTMTCRASSSVSYIHWFQQKPGKSPKPWIYATSNLASGVPVRFSGSGSGTSYSLTISRVEAEDAATYYCQQWTSNPPTFGGGTKVEIKRTVAAPSVFIFPPSDEQLKSGTASVVCLLNNFYPREAKVQWKVDNALQSGNSQESVTEQDSKDSTYSLSSTLTLSKADYEKHKVYACEVTHQGLSSPVTKSFNRGEC
heavy: EVQLVQSGAEVKKPGSSVKVSCKASGYTFTSYNMHWVRQAPGKGLEWIGAIYPGSGDTSYNQKFKGRVTITADKSTSTAYMELSSLRSEDTAVYYCARSTYYGGDWYFNVWGQGTLVTVSSASTKGPSVFPLAPSSKSTSGGTAALGCLVKDYFPEPVTVSWNSGALTSGVHTFPAVLQSSGLYSLSSVVTVPSSSLGTQTYICNVNHKPSNTKVDKKVEPKSCDKTHTCPPCPAPELLGGPSVFLFPPKPKDTLMISRTPEVTCVVVDVSHEDPEVKFNWYVDGVEVHNAKTKPREEQYASTYRVVSVLTVLHQDWLNGKEYKCKVSNKALPAPIEKTISKAKGQPREPQVYTLPPSRKKLTKNQVKLTCLVKGFYPSDIAVEWESNGQPENNYKTTPPVLDCDGSFFLYSKLTVDKSRWQQGNVFSCSVMHEALHNHYTQKSLSLSPGK
chain: EVGSYPYDDPDCPSHESDCDQGGGPLGLAGGSEAVVTQEPSLTVSPGGTVTLTCGSSTGAVTTSNYPNWVQQKPGQAPRGLIGGTNKRAPGTPARFSGSLLGGKAALTLSGAQPEDEAEYYCALWYSDLWVFGGGTKLTVLGGGGSGGGGSGGGGSGGGGSEVQLVESGGGLVQPGGSLRLSCAASGFTFSTYAINWVRQAPGKGLEWVSRIRSKYNNYATYYAESVKDRFTISRDDSKNTLYLQINSLRAEDTAVYYCVRHGNFGTSYVSWFAYWGQGTLVTVSSEPKSSDKTHTCPPCPAPELLGGPSVFLFPPKPKDTLMISRTPEVTCVVVDVSHEDPEVKFNWYVDGVEVHNAKTKPREEQYASTYRVVSVLTVLHQDWLNGKEYKCKVSNKALPAPIEKTISKAKGQPREPQVYTDPPSRDELTKNQVSLTCLVDGFYPSDIAVEWESNGQPENCYKTTPPVLDSDGSFFLYSKLTVDKSRWQQGNVFSCSVMHEALHNHYTQDSLSLSPGK
B2: TAC2245 (antibody, V domains shown)
VH: QVQLVQSGGGVVQPGRSLRLSCKASGYTFTRYTMHWVRQAPGKGLEWIGYINPSRGYTNYNQKVKDRFTISRDNSKNTAFLQMDSLRPEDTGVYFCARYYDDHYSLDYWGQGTPVTVSS
VL: DIQMTQSPSSLSASVGDRVTITCSASSSVSYMNWYQQTPGKAPKRWIYDTSKLASGVPSRFSGSGSGTDYTFTISSLQPEDIATYYCQQWSSNPFTFGQGTKLQIT
notes: also called huOKT3-C114S-gLC; parental huOKT3 anti-CD3 antibody
B3: TY23104 (antibody, human IgG4 S228P, kappa)
light: EVGSYAYHDDDCPDDDYDCASSGRSAGGGGTPLGLAGSGGSDIQMTQSPSSLSASVGDRVTITCSASSSVSYMNWYQQTPGKAPKRWIYDTSKLASGVPSRFSGSGSGTDYTFTISSLQPEDIATYYCQQWSSNPFTFGQGTKLQITRTVAAPSVFIFPPSDEQLKSGTASVVCLLNNFYPREAKVQWKVDNALQSGNSQESVTEQDSKDSTYSLSSTLTLSKADYEKHKVYACEVTHQGLSSPVTKSFNRGEC
heavy: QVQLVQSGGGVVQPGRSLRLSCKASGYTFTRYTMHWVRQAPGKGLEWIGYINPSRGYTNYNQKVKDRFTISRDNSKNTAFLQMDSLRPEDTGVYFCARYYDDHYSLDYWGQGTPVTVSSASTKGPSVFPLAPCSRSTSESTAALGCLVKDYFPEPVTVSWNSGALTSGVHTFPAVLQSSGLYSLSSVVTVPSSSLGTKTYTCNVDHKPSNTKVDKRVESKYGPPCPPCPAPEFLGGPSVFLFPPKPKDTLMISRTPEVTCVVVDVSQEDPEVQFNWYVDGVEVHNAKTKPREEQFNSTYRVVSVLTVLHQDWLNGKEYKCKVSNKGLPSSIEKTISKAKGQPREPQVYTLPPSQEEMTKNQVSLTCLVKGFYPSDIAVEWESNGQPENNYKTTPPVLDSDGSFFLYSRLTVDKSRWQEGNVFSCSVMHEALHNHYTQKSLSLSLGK
notes: also called anti-CD3 SAFEbody

Tests used:
[1] = target: T1, human CD20 on cells (human B cells; …); experiment: flow cytometry, SU-DHL-8 cells
Description: (§1) Raji, SU-DHL-8, SU-DHL-4, A3KAW and NAMALWA were B-cell lymphoma cell lines with various CD20 expression levels on cell surface. Briefly, the test antibodies were serial diluted and were incubated with the tumor cells on ice. After washing, the cells were subsequently incubated with the APC-labelled anti-human-Fc secondary antibody (BioLegend) on ice. The cells were then washed with PBS prior to analysis by the CytoFLEX flow cytometer (Beckman Coulter). The data was analyzed by FlowJo software.

[2] = target: T1, human CD20 on cells (human B cells; …); experiment: flow cytometry, SU-DHL-4 cells
Description: as §1

[3] = target: T1, human CD20 on cells (human B cells; …); experiment: flow cytometry, A3KAW cells
Description: as §1

[4] = target: T1, human CD20 on cells (human B cells; …); experiment: flow cytometry, human B cells
Text: (§2) Human and monkey PBMCs were isolated as mentioned above. Human B cells were further isolated from PBMCs using the EasySep™ Human B Cell Isolation Kit (Stem Cell Technologies). Monkey B cells were isolated from PBMCs using the Non-Human B Primate Cell Isolation Kit (Stem Cell Technologies). Purified human or monkey B cells were stained with the testing antibodies as the primary antibody and the APC-labelled anti-human-Fc antibody (BioLegend) as the secondary antibody. After washing, the cells were analyzed on the CytoFLEX flow cytometer (Beckman Coulter) and the data was analyzed by FlowJo software.

[5] = target: T2, cynomolgus monkey CD20 on B cells; experiment: flow cytometry, monkey B cells
Text: as §2

[6] = target: T1, human CD20 on cells (human B cells; …); experiment: flow cytometry, Raji cells
Description: as §1

[7] = target: T1, human CD20 on cells (human B cells; …); experiment: flow cytometry, NAMALWA cells
Description: as §1

[8] = target: T3, human CD3 on cells (Jurkat cells, human T cells) (human, UniProt P07766 23-207); experiment: flow cytometry on Jurkat cells, anti-human IgG AF647 secondary antibody
T3 construct: whole, on cells
Description: The ability of the parental huOKT3 anti-CD3 antibody TAC2245 and the activatable huOKT3 anti-CD3 antibody TY23104 to bind Jurkat cells was measured in a dose-dependent binding assay.
The Jurkat cells were thawed, washed and cultured in an incubator. 4×10⁵ Jurkat cells/well were aliquoted into 96-well plate and incubated with parental huOKT3 TAC2245 or activatable huOKT3 for 1 hour at 4° C. After centrifugation and washing, Jurkat cells were further incubated with the secondary antibody anti-human IgG AF647 for 30 minutes at 4° C. After centrifugation and washing, the Jurkat cells labelled with antibodies were re-suspended in 2% FBS DPBS and analyzed by FACS.

T3 sequence (P07766 23-207): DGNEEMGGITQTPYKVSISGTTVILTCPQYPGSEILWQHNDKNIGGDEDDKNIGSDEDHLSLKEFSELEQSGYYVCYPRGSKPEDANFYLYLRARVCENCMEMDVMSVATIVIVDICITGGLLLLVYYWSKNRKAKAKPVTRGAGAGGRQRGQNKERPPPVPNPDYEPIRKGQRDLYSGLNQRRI

| Binder | EC50 [1] | Max MFI [1] | EC50 [2] | Max MFI [2] | EC50 [3] | Max MFI [3] | EC50 [4] | max MFI [4] | EC50 [5] | max MFI [5] | EC50 [6] | Max MFI [6] | EC50 [7] | Max MFI [7] | EC50 (read off the curve) [8] |
| --- | --- | --- | --- | --- | --- | --- | --- | --- | --- | --- | --- | --- | --- | --- | --- |
| B1 | 37.2 nM | 5280 MFI | 14.6 nM | 2.48e+06 MFI | 220 nM | 967000 MFI | 14.5 nM | 50000 MFI | 13.5 nM | 28100 MFI | 28 nM | 23500 MFI | 162 nM | 647000 MFI |  |
| B2 |  |  |  |  |  |  |  |  |  |  |  |  |  |  | ~0.3 nM |
| B3 |  |  |  |  |  |  |  |  |  |  |  |  |  |  | ~70 nM |
